This is an account of results in paper PMC10351450 (Autophagy, 2023).

The target of this assay is Oligomeric recombinant human Aβ1-42 (human, UniProt P05067). The assay is described as follows: co-IP.

B1: ATP6V0C subunit of V-ATPase from mouse brain (natural protein)
chain: MADIKNNPEYSSFFGVMGASSAMVFSAMGAAYGTAKSGTGIAAMSVMRPELIMKSIIPVVMAGIIAIYGLVVAVLIANSLTDGITLYRSFLQLGAGLSVGLSGLAAGFAIGIVGDAGVRGTAQQPRLFVGMILILIFAEVLGLYGLIVALILSTK
As to B1, the binding result was “binds”.
